In article PMC4977500:

Biological target: RAIDD DD (UniProt P78560)
Assay: native gel or EMSA; native-PAGE on a PhastSystem, 8-25% acrylamide gradient gels, Coomassie staining; complexes in 20 mM Tris pH 8.0, 50 mM NaCl; pre-incubated with or without peptide for 1 hour at room temperature; complex band without peptide taken as 100%

Sequence of RAIDD DD (P78560 94-199): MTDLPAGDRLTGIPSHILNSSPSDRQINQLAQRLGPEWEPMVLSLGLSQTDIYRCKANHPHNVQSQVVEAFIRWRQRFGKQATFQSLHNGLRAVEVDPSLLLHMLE

Substance “TAT-Y814A (previously generated TAT-fused PIDD peptide with the mutation Y814A)” has a percent of RAIDD DD:PIDD DD complex formation blocked at 30 μM peptide of 50%.
